One data set has as its target T1, TIAR RRM12S (UniProt Q01085 8-175).
T1 sequence: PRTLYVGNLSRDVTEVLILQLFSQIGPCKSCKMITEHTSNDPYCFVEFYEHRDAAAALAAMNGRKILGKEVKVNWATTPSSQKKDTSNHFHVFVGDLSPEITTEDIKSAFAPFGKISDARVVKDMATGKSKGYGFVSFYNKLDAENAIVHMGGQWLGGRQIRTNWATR
The data set can be described thus: SPR. For orientation: SPR reads the build-up and loss of mass on a sensor chip optically.

Data set [1] addresses T2, TIAR RRM2L (UniProt Q01085 94-181).
T2 sequence: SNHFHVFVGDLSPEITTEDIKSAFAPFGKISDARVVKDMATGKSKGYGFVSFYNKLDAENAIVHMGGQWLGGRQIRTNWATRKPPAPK
Kind of data set: SPR.

The target in another data set is T3, TIAR RRM1 (UniProt Q01085 1-94).
T3 sequence: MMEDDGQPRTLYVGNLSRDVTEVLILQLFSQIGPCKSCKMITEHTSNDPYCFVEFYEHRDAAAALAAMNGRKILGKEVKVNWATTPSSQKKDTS
Kind of data set: SPR.

Data set [2] has as its target T2, TIAR RRM2L. Kind of data set: NMR.

B1: T-rich DNA (ssDNA)
DNA: TTTTTTTTTTTTTTTTTTTT
As usually defined, the Kd is the equilibrium constant for the complex coming apart. Turning to B1, the Kd with TIAR RRM12S was 0.314 ± 0.002 µM; with TIAR RRM2L [1] it was 0.066 ± 0.003 µM.

B2: U-rich RNA (ssRNA)
RNA: GGGGGGUUUUUUUUUUUUUUUUUGGGGG
Turning to B2, the binding result with TIAR RRM1 is recorded as “no binding”. The Kd with TIAR RRM2L [1] was determined as 0.2 ± 0.006 µM.

B3: 6-nt AU-rich RNA (ssRNA)
RNA: UUAUUU
Consider B3, for which, in the data set with TIAR RRM2L [2], the binding result is reported as “binds”.

Source of the values: publication PMC3710364.
